Target: Recombinant Human TACE/ADAM17 (930-ADB, R&D Systems) (human) (UniProt P78536)
Experiment: cell-based or functional assay

Sequence of UniProt P78536 (P78536 215-671 limits assumed): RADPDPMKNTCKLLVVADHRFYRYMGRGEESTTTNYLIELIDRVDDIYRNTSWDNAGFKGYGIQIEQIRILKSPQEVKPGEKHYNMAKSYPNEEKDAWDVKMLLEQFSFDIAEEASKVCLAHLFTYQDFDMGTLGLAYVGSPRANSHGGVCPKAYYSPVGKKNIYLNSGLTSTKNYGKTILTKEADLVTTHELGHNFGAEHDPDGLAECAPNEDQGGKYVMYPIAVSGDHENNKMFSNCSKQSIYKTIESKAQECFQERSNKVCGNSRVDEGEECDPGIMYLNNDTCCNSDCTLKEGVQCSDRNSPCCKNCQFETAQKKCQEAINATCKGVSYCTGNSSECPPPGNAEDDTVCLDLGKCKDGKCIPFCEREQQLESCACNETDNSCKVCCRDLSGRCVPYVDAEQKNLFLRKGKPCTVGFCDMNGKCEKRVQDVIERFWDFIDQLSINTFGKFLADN

- TACE activity in a cell-free assay (fluorogenic peptide substrate Mca-PLAQAV-Dpa-RSSSR-NH2), IC50: 15.3 µM
Substance: human alpha-1-antitrypsin (AAT) (Sigma Aldrich, batch A6150) (from UniProt P01009 25-418)
